From article PMC3758421

Legend:
Experiment in all cases: Spinach sensor fluorescence
thrombin = thrombin (human, UniProt P00734;P00734 315-363;364-622)
[1] = biological target: MS2 phage coat protein (MCP) (MS2 phage, UniProt P03612 2-130)
streptavidin = streptavidin (UniProt P22629 25-183)
Sequence of streptavidin (P22629 25-183): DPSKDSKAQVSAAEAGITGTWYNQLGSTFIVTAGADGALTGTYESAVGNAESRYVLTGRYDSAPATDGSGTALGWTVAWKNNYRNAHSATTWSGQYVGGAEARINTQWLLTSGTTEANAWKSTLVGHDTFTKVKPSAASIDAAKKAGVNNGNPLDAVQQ

Sequence of MS2 phage coat protein (MCP) (P03612 2-130): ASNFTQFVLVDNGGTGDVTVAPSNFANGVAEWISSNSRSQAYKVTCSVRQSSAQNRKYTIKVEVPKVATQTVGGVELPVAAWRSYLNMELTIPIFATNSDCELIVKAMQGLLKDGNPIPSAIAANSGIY

B1: thrombin sensor (Spinach fusion) (structured_RNA)
RNA: GACGCGACUGAAUGAAAUGGUGAAGGACGGGUCCAGGAACAAAGCUGAAGUACUUACCUUGUUGAGUAGAGUGUGAGCUCCGUAACUAGUCGCGUC
binding signal (thrombin): 6.9 fold fluorescence increase

B2: MCP sensor (Spinach fusion with MS2E) (structured_RNA)
RNA: GACGCGACUGAAUGAAAUGGUGAAGGACGGGUCCAAUGAGGAUCACCCAUUUGUUGAGUAGAGUGUGAGCUCCGUAACUAGUCGCGUC
binding signal [1]: 41.7 fold fluorescence increase

B3: streptavidin sensor (Spinach fusion) (structured_RNA)
RNA: GACGCGACUGAAUGAAAUGGUGAAGGACGGGUCCACGACCGACCAGAAUCAUGCAAGUGCGUAAGAUAGUCGCGGGCCGGGGUUGUUGAGUAGAGUGUGAGCUCCGUAACUAGUCGCGUC
binding signal (streptavidin): 10.3 fold fluorescence increase
